Source: publication PMC7320144 (Nature Communications, 2020)

Key:
[1] = biological target: T1, PfISN1 (IMP-specific nucleotidase 1) (Plasmodium falciparum, UniProt A0A144A134); experiment: crystal structure; enzyme activation at pH […]; type: biochemical
T1 construct: gene ISN1; wild-type, full-length

[2] = biological target: PfISN1 D172N (full-length inactive mutant) (Plasmodium falciparum); experiment: crystal structure
[3] = biological target: PfISN1 D172N-ΔN30 (Plasmodium falciparum); experiment: crystal structure
[4] = test system: O=[N+]([O-])c1ccc(OP(=O)(O)O)cc1; experiment: purified protein; type: biochemical, Plasmodium falciparum; settings: Mg2+; 25.0 °C
[5] = biological target: the molecule itself; experiment: crystal structure; vapour diffusion in sitting drops at 292 K; protein 13 mg/mL in 50 mM Tris-HCl pH 8.0, 100 mM NaCl (or 50 mM MES pH 5.0, 100 mM NaCl); apo, ATP-bound or IMP-Mg2+-bound forms; homo-tetramer

Molecule: Nc1ncnc2c1ncn2[C@@H]1O[C@H](COP(=O)(O)OP(=O)(O)OP(=O)(O)O)[C@@H](O)[C@H]1O [ATP]
- EC50 [1]: 3.8 ± 0.7 mM

Molecule: PfISN1 D172N (full-length inactive mutant) (from UniProt A0A144A134 1-444) (enzyme)
- stoichiometry N [2]: 4

Molecule: PfISN1 D172N-ΔN30 (from UniProt A0A144A134 31-444) (domain or fragment)
- stoichiometry N [3]: 4

Molecule: PfISN1 (IMP-specific nucleotidase 1) (Plasmodium falciparum 3D7; D172N)
- Km [4]: 1510 ± 150 µM
- kcat [4]: 0.28 ± 0.01 s⁻¹
- kcat/Km [4]: 190 ± 20 M⁻¹ s⁻¹

B1: Plasmodium falciparum IMP-specific nucleotidase 1 (PfISN1), wild type (enzyme, UniProt A0A144A134 1-444, looked up)
chain: MKNLDINTFDNIEDIPLGSSEQDPYDFFTLSDRNVMNSDMKKNIVQWNSRYSYNQLKNKDSLIMFLVEIFRSLFVSNCIDKNIDNVLLSIEEMFIDHYYNPQHSRLKYLIDDVGIFFTKLPITKAFHTYNKKYRITKRLYAPPTFNEVRHILNLAQILSLEEGLDLLTFDADETLYPDGHDFNDEVLASYISCLLKKMNIAIVTAASYNNDAEKYQKRLENLLKYFSKHNIKDGSYKNFYVMGGESNYLFKCNEEATLYSVPENEWRHYKKFVDYDTVQEILNISEKCLEKVIKDFGLCAQIQRKEKSIGLVPNKIPSLNIKNEQKNYMIKYEVLEEAVIRIKKEIIKNKITAPYCAFNGGQDLWVDVGNKAEGLLILQKLLKIQKKKCCHIGDQFLHSGNDFPTRFCSLTLWVSNPQETKACLKSIMHLNIKSFIPEVLYENQ
notes: IMP-specific 5'-nucleotidase 1 (ISN1, EC 3.1.3.99) of Plasmodium falciparum, 444 amino acids, gene PF3D7_1206100; domains M1-K59 (NTRD), D60-T143 (OD), F144-K270 and K371-Q444 (CD), K271-N370 (cap); Cloned into pET-21bN; details of constructs and of purification for structural studies are in Supplementary Methods; A selenomethionine derivative (E. coli B834 (DE3)) was used for phasing; also …
- stoichiometry N [5]: 4

B2: PfISN1-ΔC10 (domain or fragment, Plasmodium falciparum, UniProt A0A144A134 1-434, looked up)
chain: MKNLDINTFDNIEDIPLGSSEQDPYDFFTLSDRNVMNSDMKKNIVQWNSRYSYNQLKNKDSLIMFLVEIFRSLFVSNCIDKNIDNVLLSIEEMFIDHYYNPQHSRLKYLIDDVGIFFTKLPITKAFHTYNKKYRITKRLYAPPTFNEVRHILNLAQILSLEEGLDLLTFDADETLYPDGHDFNDEVLASYISCLLKKMNIAIVTAASYNNDAEKYQKRLENLLKYFSKHNIKDGSYKNFYVMGGESNYLFKCNEEATLYSVPENEWRHYKKFVDYDTVQEILNISEKCLEKVIKDFGLCAQIQRKEKSIGLVPNKIPSLNIKNEQKNYMIKYEVLEEAVIRIKKEIIKNKITAPYCAFNGGQDLWVDVGNKAEGLLILQKLLKIQKKKCCHIGDQFLHSGNDFPTRFCSLTLWVSNPQETKACLKSIMHLNIKS
notes: PfISN1 (444 amino acids, gene PF3D7_1206100) truncated by ten residues at the C-terminus; Construct details are in Supplementary Methods; also called ∆C10-truncated PfISN1; source: E. coli BL21-CodonPlus (DE3)-RIL (structural studies), purified
- stoichiometry N [5]: 4

B3: PfISN1-ΔN59 (domain or fragment, Plasmodium falciparum, UniProt A0A144A134 60-444, looked up)
chain: DSLIMFLVEIFRSLFVSNCIDKNIDNVLLSIEEMFIDHYYNPQHSRLKYLIDDVGIFFTKLPITKAFHTYNKKYRITKRLYAPPTFNEVRHILNLAQILSLEEGLDLLTFDADETLYPDGHDFNDEVLASYISCLLKKMNIAIVTAASYNNDAEKYQKRLENLLKYFSKHNIKDGSYKNFYVMGGESNYLFKCNEEATLYSVPENEWRHYKKFVDYDTVQEILNISEKCLEKVIKDFGLCAQIQRKEKSIGLVPNKIPSLNIKNEQKNYMIKYEVLEEAVIRIKKEIIKNKITAPYCAFNGGQDLWVDVGNKAEGLLILQKLLKIQKKKCCHIGDQFLHSGNDFPTRFCSLTLWVSNPQETKACLKSIMHLNIKSFIPEVLYENQ
notes: PfISN1 (444 amino acids, gene PF3D7_1206100) with the N-terminal regulatory domain (NTRD, M1 to K59) deleted; limits worked out from the name ΔN59 and the printed domain limits; Co-crystallized with IMP, IMP not observed in the structure; Construct details are in Supplementary Methods; also called ∆N59-truncated PfISN1; source: E. coli BL21-CodonPlus (DE3)-RIL (structural studies), purified
- stoichiometry N [5]: 4
